This experiment has as its target FcRn (Neonatal Fc Receptor). Briefly: SPR (BIAcore T200), FcRn amine-coupled on CM5 chip, antibody 1.96-31.25 nM flowed, pH 6.0 or 7.4 not given, 1:1 fit; Table 4 taken as the FcRn table.

What is called Kd is the equilibrium constant for the complex coming apart.

Substance Trastuzumab (antibody) yielded a Kd of 0.572 nM.

For the origin of these results see patent EP4678648A1.
